Publication PMC5904244, “Oligomeric states in sodium ion-dependent regulation of cyanobacterial histidine kinase-2” (Protoplasma, 2017)
Where “and” joins values, the source holds several entries; their conditions need not be identical. Identical values can stand only once.

How the values were obtained:
[1] = target: the molecule itself; test: SEC; Superdex 200 10/300GL, 20 mM Tris-HCl pH 7.6, 10 mM NaCl (low salt); apparent molecular masses from a calibration curve
[2] = target: the molecule itself; test: SEC; Superdex 200 10/300GL, 20 mM Tris-HCl pH 7.6, 500 mM NaCl (high salt); apparent molecular masses from a calibration curve
[3] = target: the molecule itself; test: cross-linking; DSP (1-11 mM; 2 mM in later experiments), 2-50 uM Hik2, 25 mM HEPES-NaOH pH 7.5, 5 mM KCl, 5 mM MgCl2, 23 °C, 10 min; no NaCl treatment; non-reducing 10% SDS-PAGE, Coomassie
[4] = target: the molecule itself; test: negative-stain transmission electron microscopy, single-particle analysis; dilution series on carbon-coated grids, 2% uranyl acetate; class averages assigned subjectively to oligomeric families; buffer and salt not stated

B1: full-length Thermosynechococcus elongatus BP-1 Hik2 (enzyme, UniProt Q8DMC5 1-385, looked up)
chain: MLWPASEEFAALCRTQLELVVNSLGASSLAVYLSETLNDSPSWSPVAVYPEAASLLSLAIPPTLPPPTQVPETSLSHYPQQVVSSLANQLILPLMYQNWVLGVLVAQRQHRPWLAAEQAQLQQVAQTLAIACVLDQRQQWLSHSPAQPLDQRQQRFDDLLHQLRNPVAAIRTFVKLLLKRLEPDHKGRPLAEGIAKETERLMALLEDYRQQRNDIPALTGSQPLPLAGKPLDLAETLLPLISAAQARAEMEGKTFVVEIPPQLPPIWLEERVLQEVVGNLLDNAFKYTPKGGTIGLRLMLSSPALELTVWDTGCGIPKEAQPRLFERGYRGVQADSGIEGSGLGLAIAQDLLRPYGLSLRVTSPYAGDRGTAFTLAIPWQMKVEP
notes: Histidine kinase 2 (Hik2), tlr0195, Thermosynechococcus elongatus BP-1, full length; calculated molecular mass 44.2 kDa; The forward primer has catatgATG, so one extra N-terminal Met may be present; A C-terminal His tag from the vector is surmised
For B1, the “stoichiometry N” value [1] was 6 and the “stoichiometry N” value [2] was 4.

B2: truncated DHp domain of Thermosynechococcus elongatus BP-1 Hik2 (domain or fragment, UniProt Q8DMC5 142-270, looked up)
chain: SHSPAQPLDQRQQRFDDLLHQLRNPVAAIRTFVKLLLKRLEPDHKGRPLAEGIAKETERLMALLEDYRQQRNDIPALTGSQPLPLAGKPLDLAETLLPLISAAQARAEMEGKTFVVEIPPQLPPIWLEE
notes: Hik2 (tlr0195), Thermosynechococcus elongatus BP-1, DHp domain, amino acids 142-270; calculated molecular mass 15.1 kDa; The forward primer has catatgATG, so added N-terminal Met residues are likely; A C-terminal His tag from the vector is surmised
In the case of B2, the “stoichiometry N” value [1] is reported as 8 and the “stoichiometry N” value [2] is reported as 6.

B3: full-length Synechocystis sp. PCC 6803 histidine kinase 2 (Hik2) (enzyme, UniProt P73276 1-434, looked up)
chain: MAGSISSMYSPSAGLISLCQSQVRLLQQGLRVDWCGVYLNQEETEQGLVPLVVSHGSTLVESESYGLISLPQGEVSPPMDDFSLPAVPVGVGQLSRRSRLEPPPFDADKRLVLPLVYGEEMVGLLVIHRSQGQWHGEEMMQLEAIAKSLAVACLLDQQQDWYRQAWEEQNQQYQWERQHWADLLHQLRNPLTALKTFSKLLLKRWHGDNKSQQVVEGIVRQGEHLQELLQSFEASQSQGPEAVPLLSSSPVTTIQVLPPADRVETMPLANFSLGEVLPPILLAHQAIAAERNITLTAQIALIDTVVMANRLALREVVNNLLDNGIKYTPNGGLVEVSLALEKVSSSGMDWATLAIADTGYGIPPEDQQKIFERNYRGVQGRGSINGTGLGLAIVADLVAQMGGKITVTSPNGLSRDPDQPGSTFTLWLRSGEQV
notes: Histidine kinase 2 (Hik2), slr1147, Synechocystis sp; PCC 6803, full length; calculated molecular mass 48.5 kDa
B3 was tested, and the “stoichiometry N” value [3] was 4 and 6 and 8 and the “stoichiometry N” value [4] was 2 and 3.

B4: truncated core kinase domain of Thermosynechococcus elongatus BP-1 Hik2 containing only the DHp and CA subdomains (domain or fragment, UniProt Q8DMC5 142-385, looked up)
chain: SHSPAQPLDQRQQRFDDLLHQLRNPVAAIRTFVKLLLKRLEPDHKGRPLAEGIAKETERLMALLEDYRQQRNDIPALTGSQPLPLAGKPLDLAETLLPLISAAQARAEMEGKTFVVEIPPQLPPIWLEERVLQEVVGNLLDNAFKYTPKGGTIGLRLMLSSPALELTVWDTGCGIPKEAQPRLFERGYRGVQADSGIEGSGLGLAIAQDLLRPYGLSLRVTSPYAGDRGTAFTLAIPWQMKVEP
notes: Hik2 (tlr0195), Thermosynechococcus elongatus BP-1, kinase domain (DHp and CA), amino acids 142-386; calculated molecular mass 26.2 kDa; The forward primer has catatgATG, so added N-terminal Met residues are likely; A C-terminal His tag from the vector is surmised
For B4, the “stoichiometry N” value [1] was 6 and the “stoichiometry N” value [2] was 4.
